Residue numbers refer to the chain shown, from its start. One block for each binder: values may come before it.
Legend:
hTSLP = hTSLP (human, UniProt Q969D9 29-159); assay: ELISA per WO2021139758 Test Example 4
hIL5 = hIL5 (human, UniProt P05113 20-134); assay: ELISA per WO2021139758 Test Example 4
human CCR8 = target: T1, human CCR8 (human, UniProt P51685 1-355); assay: FACS, CHOK1-human CCR8 cells
T1 construct: on CHOK1-human CCR8 cells
Source text: (§1) To determine whether the GPRC5D/CD3 bispecific antibodies of the present disclosure cross-bind to the GPCRA and GPCRB family members, a flow cytometry assay was used in this test example to measure the capacity of the GPRC5D/CD3 bispecific antibodies to bind to CHOK1-human CCR8 cells expressing CCR8 (the GPCR A family) (constructed with reference to Example 2) and CHOK1-human GIPR cells expressing human GIPR (the GPCR B family) (constructed with reference to Example 2). The specific procedure was as follows: The cells described above were cultured in DMEF/12K culture medium containing 10% FBS, incubated in a 37° C., 5% CO₂ incubator for 2 days, and added to a cell plate at 1×10⁵ cells/well. The plate was centrifuged at 300 g for 5 min and washed once with 1% BSA. The antibodies were serially diluted to 8 concentrations and added to the cell plate at 100 μL/well. The plate was incubated at 4° C. for 1 h and washed once with 1% BSA. […] The plate was washed three times with 1% BSA, PBS was added at 100 μL/well, and plate reading was performed.

human GIPR = target: T2, human GIPR (human, UniProt P48546 22-466); assay: FACS, CHOK1-human GIPR cells
T2 construct: on CHOK1-human GIPR cells
T2 sequence: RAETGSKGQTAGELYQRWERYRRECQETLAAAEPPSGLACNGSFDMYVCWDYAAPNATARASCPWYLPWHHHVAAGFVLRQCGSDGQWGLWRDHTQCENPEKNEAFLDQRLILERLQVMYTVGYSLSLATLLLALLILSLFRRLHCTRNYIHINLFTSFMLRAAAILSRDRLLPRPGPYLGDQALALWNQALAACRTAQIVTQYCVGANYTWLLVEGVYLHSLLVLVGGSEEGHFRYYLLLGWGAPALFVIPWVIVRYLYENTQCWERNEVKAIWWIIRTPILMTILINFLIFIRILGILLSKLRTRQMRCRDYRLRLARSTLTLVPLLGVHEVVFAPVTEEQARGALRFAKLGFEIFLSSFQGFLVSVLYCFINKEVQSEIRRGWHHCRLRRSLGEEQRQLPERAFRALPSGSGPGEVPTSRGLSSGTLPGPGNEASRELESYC
Source text: as §1

EC50 (hTSLP): 3.17 nM
EC50 (hIL5): 20.8 nM
B1: HJ-10 (bispecific antibody)
chain 1: not shown
chain 2: DIQMTQSPSSVSASVGDRVTITCRASQDIANYLSWYQQKPGKSPKLLIYGTSNLEVGVPSRFSGSRSGTDFTLTISSLQPEDFATYYCLQDKEFPRTFGGGTKVEIKRTVASSGAPRFLTRPKASVVSVGKDATLSCQIVGNPFPQVSWEKDKQPVTAGVRFRLAQDGDLYRLKILDLQLSDSGQYVCRARNAHGEAFACLGLQVDAEA
chain 3: EVQLVQSGAEVKKPGSSVKVSCKASGYTFSNYLIEWVRQAPGQGLEWIGVIDPGVGDTNYNENFKGRATLTADKSTSTAYIELSSLRSEDTAVYYCAREDNTGTAFDYWGQGTTVTVSSASTKGPSVFPLAPSSKSTSGGTAALGCLVKDYFPEPVTVSWNSGALTSGVHTFPAVLQSSGLYSLSSVVTVPSSSLGTQTYICNVNHKPSNTKVDKKVEPKSCDKTHTCPPCPAPEAAGGPSVFLFPPKPKDTLMISRTPEVTCVVVDVSHEDPEVKFNWYVDGVEVHNAKTKPREEQYNSTYRVVSVLTVLHQDWLNGKEYKCKVSNKALPAPIEKTISKAKGQPREPQVCTLPPSREEMTKNQVSLSCAVKGFYPSDIAVEWESNGQPENNYKTTPPVLDSDGSFFLVSKLTVDKSRWQQGNVFSCSVMHEALHNHYTQKSLSLSPGK
chain 4: SIVMTQTPLSLSVTPGQPASISCKASQSVSSDVTWYLQKPGQSPQLLIYYVSEHYTGVPDRFSGSGYGTDFTLKISRVEAEDVGVYYCQQHHRFPLTFGQGTKLEIKRTVAAPSVFIFPPSDEQLKSGTASVVCLLNNFYPREAKVQWKVDNALQSGNSQESVTEQDSKDSTYSLSSTLTLSKADYEKHKVYACEVTHQGLSSPVTKSFNRGEC

EC50 (hTSLP): 3 nM
EC50 (hIL5): 9.46 nM
B2: HJ-11 (bispecific antibody)
chain 1: not shown
chain 2: B1 chain 2 with A115C
chain 3: B1 chain 3
chain 4: B1 chain 4

More lines, now with the values behind:

B3: F4-6 (bispecific antibody)
heavy 1: not shown
light 1: not shown
heavy 2: EVQLVQSGAEVKKPGASVKVSCKVSGYTFTDYPIHWMRQAPGQGLEWMGYVFPRDGSTKYNEKFRVRVTWTADKSTSTVYMELSSLRSEDTAVYYCSRELTAYWGQGTTVTVSSASTKGPSVFPLAPSSKSTSGGTAALGCLVKDYFPEPVTVSWNSGALTSGVHTFPAVLQSSGLYSLSSVVTVPSSSLGTQTYICNVNHKPSNTKVDKKVEPKSCDKTHTCPPCPAPEAAGGPSVFLFPPKPKDTLMISRTPEVTCVVVDVSHEDPEVKFNWYVDGVEVHNAKTKPREEQYNSTYRVVSVLTVLHQDWLNGKEYKCKVSNKALPAPIEKTISKAKGQPREPQVCTLPPSRDELTKNQVSLSCAVKGFYPSDIAVEWESNGQPENNYKTTPPVLDSDGSFFLVSKLTVDKSRWQQGNVFSCSVMHEALHNHYTQKSLSLSPGK
light 2: DVVLTQSPLSLPVTLGQPASISCKSSQSLLHSSGKTYLNWLLQRPGQSPRRLIYLVSKLDSGVPDRFSGSGSGTDFTLKISRVEAEDVGVYYCAQGTHFPRTFGGGTKVEIKRTVAAPSVFIFPPSDEQLKSGTASVVCLLNNFYPREAKVQWKVDNALQSGNSQESVTEQDSKDSTYSLSSTLTLSKADYEKHKVYACEVTHQGLSSPVTKSFNRGEC
notes: formula 4
binding result (human CCR8): no binding
binding result (human GIPR): no binding

B4: F2-1 (bispecific antibody)
heavy 1: not shown
light 1: DVVMTQTPLSLSVTPGQPASISCRSSQSLVHSQGNTYLYWYLQKPGQSPKLLIYKVSNRFSGVPDRFSGSGSGTDFTLKISRVEAEDVGVYYCSQSTHVPPLTFGQGTKLEIKRTVAAPSVFIFPPSDEQLKSGTASVVCLLNNFYPREAKVQWKVDNALQSGNSQESVTEQDSKDSTYSLSSTLTLSKADYEKHKVYACEVTHQGLSSPVTKSFNRGEC
heavy 2: not shown
light 2: not shown
notes: formula 2
binding result (human CCR8): no binding
binding result (human GIPR): no binding

Reference: patent US20250215083A1 (JIANGSU HENGRUI PHARMACEUTICALS, published 2025)
